Results: doi:10.1101/2020.08.09.229716

Target: Gβγ subunits (fluorescent-tagged, of the FRET Gαi activity reporter) (UniProt P62873)
Assay: FRET or BRET

Row | loss of FRET signal after EGF stimulation | reduction in FRET signal compared to WT and 3YF | Substance
1 | 50% |  | Gαi1-WT activity reporter (fluorescent-tagged Gαi) (from UniProt P63096 1-354) (natural protein)
2 |  | 80% | Gαi1-Y154H activity reporter (from UniProt P63096 1-354) (natural protein)
